Source: patent US20240425569A1 (VISTERRA, published 2024)
Where two headings read alike, the source gives them in different places.

Key:
[1] = target: T1, EDIII-DV4 (E protein domain III of dengue virus serotype DV-4) (dengue virus serotype DV-4, UniProt P09866 572-679); experiment: affinity for EDIII, table of FIG. 4; method not stated
T1 construct: also called DENV-4

[2] = target: T1, EDIII-DV4 (E protein domain III of …)
[3] = target: T2, EDIII-DV3 (E protein domain III of dengue virus serotype DV-3) (dengue virus serotype DV-3, UniProt P27915 571-678)
T2 construct: also called DENV-3; EDIII of DV-3

[4] = target: T3, EDIII-DV2 (E protein domain III of dengue virus serotype DV-2) (dengue virus serotype DV-2, UniProt P14337 573-677)
T3 construct: also called DENV-2; EDIII of DV-2

[5] = target: T4, EDIII-DV1 (E protein domain III of dengue virus serotype DV-1) (dengue virus serotype DV-1, UniProt P17763 573-680)
T4 construct: also called DENV-1; EDIII of DV-1
T4 chain: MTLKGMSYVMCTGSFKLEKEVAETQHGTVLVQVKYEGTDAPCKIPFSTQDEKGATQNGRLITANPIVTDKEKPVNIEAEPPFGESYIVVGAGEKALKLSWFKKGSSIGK

[6] = target: T5, Singapore/2009 (serotype III EDIII)
T5 construct: also called ED3-DV3/Sing09; DENV-3 Sing
T5 E protein domain III (EDIII): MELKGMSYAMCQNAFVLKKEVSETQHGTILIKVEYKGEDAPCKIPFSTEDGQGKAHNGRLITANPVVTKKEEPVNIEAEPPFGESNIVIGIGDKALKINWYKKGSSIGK

[7] = target: T6, Singapore/2008 (serotype II EDIII); experiment: Kd table, method not stated; Ag DENV-2 Sing
T6 construct: also called ED3-DV2/Sing08; DENV-2 Sing

[8] = target: T7, Philippines/1956 (H87)* (serotype III EDIII) (Dengue virus 3)
T7 construct: isolated EDIII protein

[9] = target: T1, EDIII-DV4 (E protein domain III of …); remark: listed apart in the source
[10] = target: T2, EDIII-DV3 (E protein domain III of …); remark: listed apart in the source
[11] = target: T4, EDIII-DV1 (E protein domain III of …); experiment: SPR (FIG. 9), by context
[12] = target: T2, EDIII-DV3 (E protein domain III of …); experiment: competition ELISA
[13] = target: T3, EDIII-DV2 (E protein domain III of …); experiment: competition ELISA
[14] = target: T4, EDIII-DV1 (E protein domain III of …); experiment: competition ELISA
[15] = target: T8, Peru/1995 (serotype II EDIII); experiment: Kd table, method not stated; Ag DENV-2 Peru
T8 construct: also called ED3-DV2/Peru95; DENV-2 Peru

[16] = target: T1, EDIII-DV4 (E protein domain III of …); experiment: competition ELISA; column 'EDIII-DV4'
[17] = target: ED3-DV4/H241/Phil56 (EDIII of DENV-4 strain H241) (dengue virus serotype DENV-4, strain …, UniProt Q58HT7 572-679); experiment: Kd table, method not stated; Ag DENV-4 Phil
[18] = target: T9, New Caledonia/2009 (serotype IV EDIII); experiment: Kd table, method not stated; Ag DENV-4 NC
T9 construct: also called ED3-DV4/NewCal09; DENV-4 NC
T9 E protein domain III (EDIII): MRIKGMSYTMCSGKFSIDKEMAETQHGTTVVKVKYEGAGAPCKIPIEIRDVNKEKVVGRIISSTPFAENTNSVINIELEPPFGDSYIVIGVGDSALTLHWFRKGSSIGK

[19] = target: T10, Singapore/2010 (serotype IV EDIII); experiment: Kd table, method not stated; Ag DENV-4 Sing
T10 construct: also called ED3-DV4/Sing10; DENV-4 Sing
T10 E protein domain III (EDIII): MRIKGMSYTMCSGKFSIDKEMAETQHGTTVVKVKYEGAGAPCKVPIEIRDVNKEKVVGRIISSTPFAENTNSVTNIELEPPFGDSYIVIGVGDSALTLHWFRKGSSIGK

[20] = target: T11, Nicaragua/2010 (serotype III EDIII)
T11 construct: also called ED3-DV3/Nicaragua10; DENV-3 Nic
T11 E protein domain III (EDIII): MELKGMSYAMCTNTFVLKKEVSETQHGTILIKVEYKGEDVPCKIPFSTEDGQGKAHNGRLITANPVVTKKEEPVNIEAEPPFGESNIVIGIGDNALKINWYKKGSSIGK

[21] = target: T12, New Guinea/1944 (NGC)* (serotype II EDIII) (Dengue virus 2); experiment: Kd table, method not stated; Ag DENV-2 NGC
T12 construct: isolated EDIII protein; also called EDIII of DENV-2 NGC

[22] = target: T13, Mexico/1977 (BC287/97)* (serotype IV EDIII) (Dengue virus 4); experiment: Kd table, method not stated; Ag DENV-4 BC2
T13 construct: isolated EDIII protein; also called EDIII of DENV-4 Mexico/1997 (BC287/97); DENV-4 BC2

[23] = target: T1, EDIII-DV4 (E protein domain III of …); remark: listed apart in the source
[24] = target: T1, EDIII-DV4 (E protein domain III of …); remark: listed apart in the source
[25] = target: T1, EDIII-DV4 (E protein domain III of …); experiment: competition ELISA; column 'EDIII-DV4 [1/7]'

B1: antibody B48+A98V (antibody, V domains shown)
VH: QVQLVQSGAEVKKPGASVKVSCKAGFNIKDTYMSWVRQAPEQGLEWMGRIDPENGDTKYDPKLQGRVTMTADTSTNTAYMELRSLRSDDTAVYYCVRGWEGFAYWGQGTLVTVSS
VL: DIVMTQSPASLAVSLGERATISCRASENVDKYGNSFMHWYQQKPGQPPKLLIYRASELQWGVPDRFSGSGSGTDFTLTISSLQAEDVAVYYCQRSNEVPWTFGQGTKLEIK
**Q.** What does the source list for B1?
**A.** fold improvement in binding relative to antibody B48 [1]: ~5 fold; Kd [2]: 9.26 nM; Kd [3]: 5.06 nM; Kd [4]: < 0.1 nM; Kd [5]: < 0.1 nM

B2: antibody C88 (antibody, V domains shown)
VH: QVQLVQSGAEVKKPGASVKVSCKASGFNIKDVYMSWVRQAPEQGLEWMGRIDPENGDTKYDPKLQGRVTMTADTSTNTAYMELRSLRSDDTAVYYCARGWEGFAYWGQGTLVTVSS
VL: DIVMTQSPASLAVSLGERATISCRASENVDKYGNSFMHWYQQKPGQPPKLLIYRASELQWGVPDRFSGSGSGTDFTLTISSLQAEDVAVYYCQRSNEVPWTFGQGTKLEIK
**Q.** How did the Kd [6] turn out when B2 was run?
**A.** 1 nM

**Q.** And the Kd [7]?
**A.** < 0.1 nM

**Q.** What about the Kd [8] of the same binder?
**A.** 1.5 nM

**Q.** What about the Kd [9] of the same binder?
**A.** 23.8 nM

**Q.** What about the Kd [10] of the same binder?
**A.** 0.97 nM

**Q.** What about the “fold greater affinity than C98” value [11] of the same binder?
**A.** ~20 fold

**Q.** And the Kd [12]?
**A.** 1.06 nM

**Q.** And the Kd [13]?
**A.** < 0.1 nM

**Q.** And the Kd [14]?
**A.** < 0.1 nM

**Q.** What about the Kd [15] of the same binder?
**A.** 0.38 nM

**Q.** What about the Kd [16] of the same binder?
**A.** 15.4 nM

**Q.** What about the Kd [17] of the same binder?
**A.** 234 nM

**Q.** And the Kd [18]?
**A.** 11.3 nM

**Q.** What about the Kd [19] of the same binder?
**A.** 15 nM

**Q.** And the Kd [20]?
**A.** 3.2 nM

**Q.** What about the Kd [21] of the same binder?
**A.** < 0.1 nM

**Q.** And the Kd [22]?
**A.** 10.6 nM

**Q.** And the Kd [23]?
**A.** 13 nM

**Q.** And the Kd [24]?
**A.** 13 nM

**Q.** What about the Kd [25] of the same binder?
**A.** 13 nM
